Data: PMC5474753 (Journal of molecular biology, 2016)

Molecular target: the molecule itself
Experiment: FRET or BRET

B1: full-length FGFR3 C228R mutant (CHO) (receptor)
chain: ESLGTEQRVVGRAAEVPGPEPGQQEQLVFGSGDAVELSCPPPGGGPMGPTVWVKDGTGLVPSERVLVGPQRLQVLNASHEDSGAYSCRQRLTQRVLCHFSVRVTDAPSSGDDEDGEDEAEDTGVDTGAPYWTRPERMDKKLLAVPAANTVRFRCPAAGNPTPSISWLKNGREFRGEHRIGGIKLRHQQWSLVMESVVPSDRGNYTRVVENKFGSIRQTYTLDVLERSPHRPILQAGLPANQTAVLGSDVEFHCKVYSDAQPHIQWLKHVEVNGSKVGPDGTPYVTVLKTAGANTTDKELEVLSLHNVTFEDAGEYTCLAGNSIGFSHHSAWLVVLPAEEELVEADEAGSVYAGILSYGVGFFLFILVVAAVTLCRLRSPPKKGLGSPTVHKISRFPLKRQVSLESNASMSSNTPLVRIARLSSGEGPTLANVSELELPADPKWELSRARLTLGKPLGEGCFGQVVMAEAIGIDKDRAAKPVTVAVKMLKDDATDKDLSDLVSEMEMMKMIGKHKNIINLLGACTQGGPLYVLVEYAAKGNLREFLRARRPPGLDYSFDTCKPPEEQLTFKDLVSCAYQVARGMEYLASQKCIHRDLAARNVLVTEDNVMKIADFGLARDVHNLDYYKKTTNGRLPVKWMAPEALFDRVYTHQSDVWSFGVLLWEIFTLGGSPYPGIPVEELFKLLKEGHRMDKPANCTHDLYMIMRECWHAAPSQRPTFKQLVEDLDRVLTVTSTDEYLDLSAPFEQYSPGGQDTPSSSSSGDDSVFAHDLLPPAPPSSGGSRT
With B1 the “stoichiometry N” value was 2.
